In a protein production outcome set (Wang et al. 2014) one finds protein production data, which are given here for 17 sequences.

The nature of this data set: label from the status in PepcDB records.
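Further: failed if final PepcDB status was selected cloned or expressed and not failed if soluble or beyond.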

On to “MRVMAFVQARMGSTRLPGKSLMPVWNGMGVLEMTLRRALRARTLSGVVLCTSTDPACDALETLASGLGVQAFRGPEDDVLTRYALATERFEPDAVVRICADSPLVCPEGIDALVAFFRDEGLDYAAHAMDGTGLPDGLGCEVFTAAALAQAHAEATAPEDREHVSLFIRHRPERFRQATLAADAALRAPGVSLDVDTQDDLDALRRFIMALPPSEGPFWSADAIAPLARGLHTPPQGTSMDIASDDYHDFFIRDGKLIGEFEQMYRKSRHAPWHQDEACDKWFNKVSAALVGHALDDPSVRTVFEVGSGLGYFLSQFAGEGRTLTGTDVSATAVEKARALFPGISFEVDDIRFEGRRGPYDLCLMQAVCWCIFPHMDDVVRNVTATVRPGGYLFLGECFQPLDGPFAGKDVIPTPDALIGHFSHAFDTVADVRVTRGEMGGGPIIYWLGRRRGLEHHHHHH”, for which the protein production entry is recorded as “not failed”. For “MRVRNRKGATELLEANPQYVVLNPLEAKAKWRDLFGNDNPIHVEVGSGKGAFVSGMAKQNPDINYIGIDIQKSVLSYALDKVLEVGVPNIKLLWVDGSDLTDYFEDGEIDRLYLNFSDPWPKKRHEKRRLTYKTFLDTFKRILPENGEIHFKTDNRGLFEYSLVSFSQYGMKLNGVWLDLHASDFEGNVMTEYEQKFSNKGQVIYRVEAEF” the value was “not failed”; for “MRVVRGDVARRALSIGWPLVVADSALSIAWIVDTYFVGGLGSESIAAVGAAGYLIWLYMVFSTLVYMGVLVILGQAIGSGNRGLVERAAGEGLTLSILLSIIVCAAAFAASKQLLVVLAPEVDQLAWEYLSVSLLTVALHYVTILYDAVFRALGKTMPILYSSGVFTLANTALDPILIYGRLGAPALGVEGAAWASVAASLLGLLVLVYLSRYLDVGLRPLRPTSVSRSILALGFPSMVERVVFVVGNVVYLGSVSRCGADALAAHTIGVRIESLAFLPLFSIATASGVMVGWEVGAGRIAESKSTGWELIKLSSLIGLVVGAALALGGWLVTPIFTGDPRVAWLAALYLVIAGLTEPLLGVVMVAGQIIRNAGDTRTPTLVNLGSLYILRVVPAYLLPGLMPTGLCVLGAWLAMGIDIVGRAAAIVFIYLRYYTRLARRVA”, “failed”.

For the sequence “MRWKYLVVLLIVILLASGCAEKSQGPGASAAFQEPESDTQDTEKTGNSEEGVHIDSVVFSRAGALLTLKDEAEISEIRVYSESEEIASQEIGKNKDNVFVSFNWDPEARYRFEVITGSGASGTIEAYAPSKPALKKEYTIELEDVTPGDIEKTSTNVEGALKFSPDSEYLAIGTNGGSLKLIKVATGEKVWEKQLVKGIADARIADIEFSEDGKRLFVGEESPDAFLYCFDLEGTEIWKYGAGKELGSDLKYMPAMKKIKLDSEGNIYVAASRACGYIGEKYKYLARIYSFDPEGNLRWKFPESEYMDSGVTWIDATPDGKYAVFGTTCFTETEKWREGTVHALNGNTGQEHWSYKIQPVEPFFDYSAIWYSTQITPDGEKLITMTSDGRAFLFNNSRIIETGTPEITWQQNISTPIVVSGVPIYGSANYAYIVNDTLIFSIGSTFSKDKNKDAPFEHPSGNSLFAYDYDGNLLWKWRVDGYAGECAVNDRYLVIPLAQNLVTEDRSVHGVYVFDASKSGGASSRLIQTYNTEGITVSADISPDGRYIAALEAPSRLDDGTVLGEYKVHILT”, the protein production entry is recorded as “failed”. The result for “MRWNCSACWASSASANAGRRRHFDTSLWRASCSGYGARARQIQAAWIRADTPESTRVPATRRIRLLNPVVPVRSLSACRHLTRSRPPLRSFTMPHVVARSGDVMSSAAPPSCTSLLGLSLSMFVAPCTLTAAPLDTPVVNAPAPTPPTPDQAYPELFQAVQSGELFDDQKHFVDFLPLRDPALINADYLAQHDHPGFDLRKFVDANFEESPPVQTDAIRQDTALREHIDLLWPKLVRSQNHVPPYSSLLSLPHPYVVPGGRFREVYYWDSYFTMLGLVKSGQTTLSRQMLDNFAYLIDTYGHIPNGNRSYYLSRSQPPFFSYMVELQAGVEGQAVYQRYLPQLQKEYAYWMQGSDDVQPGQAARHVVRLADGSVLNRYWDERDTPRPEAWLHDTRTAAEVKDRPAAEVYRDLRAGAESGWDYTSRWLADGQNLRTIRTTAIIPIDLNSLLYHLERTLAQACAQPGAACSRDYAALAQQRKQAIDAHLWNKAGYYADYDWQTRTLSDQITAAALYPLFAGLASDDHAKRTASTVRRTLVRPGGLATTAVKTGQQWDEPNGWAPLQWVAVDGLRRYGEQALARTIGERFLAQVQALFAREHKLVEKYGLETNAAGGGGGEYALQDGFGWTNGVTLMLLNLYPGKGAKAAPAKRVRKTEAAAR” reads “failed”. For “MRWRHPSALRKADERGRRTPCVVSATSLAVGRIALALLLVVLNGFFVAAEFAFVRLRSASVETLVQDGRRGATAVKEATDNLDDYLAVSQLGITIASLGLGWVGEPAVAVLVDPLLEPVLPAPVRHTVTVALGFGIVTLLHVVYGELAPKTIAIQRAERVALVVAPVMKLFYYVFLPGTILFNGIATRSVQLIGVSPETEGHDTHTEPEILSVLSEASAAGRISPAEVSMIEHVFSLDDTTVREIMRPRPDVTSVSADTPLPELRTMAASGEYTRYPVTEGPDDDVIGFVDVKDILRASDAIDESGDVTARELSRPVVVVPETLRVDELLAEFQAEHRQMAVVIDEWGAFEGLATIEDALEVIVGDIRDQFDLATHAQSIEPRDDGGYEVPGAVSITELNDHLGTDFENEAVETVAGLVVSRLGHAPTVGDRAVIDTHTFRVTGVDGARITSLTVTPDS” the value was “failed”; for “MRYERDMRGYGANPPDPKWPGGAHVAVQFVVNYEEGGENCVLHGDKASEAFLSEIVGAAPWVGQRHWNMESIYEYGARAGFWRLLRLFSESQVPVTCYGVASALARSPDQVTAMQDAGWEIASHGLRWIDYRDHSAEDERRDLEAAIKLHYEVTGQRPTGWYTGRTSVNTVRLVAEEGGFDYVSDTYDDELPYWFEHAGGTQLIIPYTLDANDMRFATPQGFNSGDQFFAYLKDSFDTLYAEGQAGRPRMMNIGLHCRLVGRPGRVAALKRFVDYVKSHDKVWLTRRIDIAKHWQENHPYKPAALRPSKMEFEIFVHTFGGVFEHSPWIAERAYELELGPAHDTAGGLHNALCRIFRSASETERLGVLNAHPDLAGKLAKARRLTAESTREQASAGLDALTDKERELFSKLNAAYVTTFGFPFIIAVKGKTKEEILAEFEARIGNSRGVEFETACKQVERIALLRLRDMLPQ”, “failed”. With “MRYKRRFVTVYRDFPEGCGVPSKPISNADESFMQSKFNKDGIVLQAHEDFSKITKESSNHSETENSRTEDLLDEGSVLDSNGSVTDCQEDREREMSSVKKRCLSSHNLTSEVETERIGIVLGLAAKAKCPWRQPKIRGSRQVNDLN”, the protein production entry is given as “failed”. As to “MRYSPRKQCYFALFFFAFVALCVGVIELLHQNQQDLQQERVQVEAKEQLSILRSNLEAVLMADIYKASTLATLITLLPNSEEEELSIAADRILNKSKHITVIGIAENDVISHIFPTQGNERVLGLDYRKVPAQWVQVQKAKDIQEIFIAGPVSLVQGGRGLIVRVPVFRDPPINKEYWGVISAVVDFDGLMRETGVFDFSYHYPLTIRGYDSGGEYGDMFFGDPNQTGKLYAKEHVHFPYGGWSMAAYAGGQLEQQISWFELNIVRIIGYPILIALSIALIVIYRLYIIADDRALHDELTHLPNRRYFMQSYKQQFEIAKRYKKRYSFALINIDLDRFKHINDTFGHDAGDKVLIATAERIKSSLRRSDMVARMGGDEFLVVVHNLGMEEHVQKLLQKLRLALCSTPVIYDEELIYLRVSIGYAIFDPQMTSPEQMMKIADERMYQQKHGGLEHHHHHH”, the protein production entry was “not failed”.

With “MRYVLALFFYRVFLLLLTPIVLLVLLIRSFNHPEYRQRLFERLGFFPKPYKQGGIVVHAASVGEVIALKSFIEKLLVNYPDLPITITSFTPTGSAQITKLFGRRVQHGYLPLDIFPCTTLFLHRLKPKMIIFMETELWPNLIAQCDQHQIKLLLINGRLSKKSLTSYQKLSALMAPCLNRFDMILTQSQENLTHFLQLGAHQSRCVNSGNLKFDISVNEQVINKKAELAKLLFADDSQAKRTVWLVASTHEGDEAITLTAFKELLSQYPSLLLVLVPRHPERFEQVANLCLTKQLSLAKRSENTIINNEQVWLLDSLGELMAAFALSDIVTMGGSFSEVGGHNPLEPALFNKPVIVGHNMSNFNEIMQQLRQENAIIELTNNTPTNESSAQLVNEVSALLQQPTRQKTLGENALKVVLKNQGASEKTLAQVVNLLPTRVNITSTTPLGDNS”, the protein production entry was “failed”.

For the sequence “MRYVLYVPDISCNHCKMRISKALEELGVKNYEVSVEEKKVVVETENLDSVLKKLEEIDYPVESYQEV”, the protein production result is reported as “not failed”. As for “MSAEPRLHTLRVARTARVATLGTPATAGSWWVVLHGYGQLAADFVSAFHPLVAPDRCVVAPEGLSRFYVDGMAQHEQVGASWMTREAREAEVSDYVDALDATVRHLADDTPPSLHVLGFSQGAVTASRWALWGDTAVDRLVLWGGAPAHDLDLAEHAASLRALDLTLVAGTEDPYVTDDRWAAIRRRLQAHDIPVTTRTFEGGHRIDPAPLRALVAPA”, the protein production result is “failed”. On to “MSAIDSQLPSSSGQDRPTDEVDRILSPGKLIILGLQHVLVMYAGAVAVPLMIGDRLGLSKEAIAMLISSDLFCCGIVTLLQCIGIGRFMGIRLPVIMSVTFAAVTPMIAIGMNPDIGLLGIFGATIAAGFITTLLAPLIGRLMPLFPPLVTGVVITSIGLSIIQVGIDWAAGGKGNPQYGNPVYLGISFAVLIFILLITRYAKGFMSNVAVLLGIVFGFLLSWMMNEVNLSGLHDASWFAIVTPMSFGMPIFDPVSILTMTAVLIIVFIESMGMFLALGEIVGRKLSSHDIIRGLRVDGVGTMIGGTFNSFPHTSFSQNVGLVSVTRVHSRWVCISSGIILILFGMVPKMAVLVASIPQFVLGGAGLVMFGMVLATGIRILSRCNYTTNRYNLYIVAISLGVGMTPTLSHDFFSKLPAVLQPLLHSGIMLATLSAVVLNVFFNGYQHHADLVKESVSDKDLKVRTVRMWLLMRKLKKNEHGE”, for which the protein production result was “failed”. Take “MSAIPENANVTVLNKNEKKARELIGKLGLKQIPGIIRVTFRKKDNQIYAIEKPEVFRSAGGNYVVFGEAKVDNFTQKLAAAQQQAQASGIMPSNEDVATKSPEDIQADMQAAAEGSVNAAAEEDDEEGEVDAGDLNKDDIELVVQQTNVSKNQAIKALKAHNGDLVNAIMSLSK”: the protein production result is on record as “failed”. Take “MSAIQNGTDEVRVIDTGAPPTRFARGWHCLGLASEFSDGKPHQISAFGTELVVFAGEDGKLNVLNAFCPHMGGNLADGTVKGDTIACPFHDWRWRGDGKCADIPYARRVPPLARTKSWLTLERNGQLFVWNDPQNRKPPAEVTIPEISVFGDEGWTDWVWNKLEVRGSHCREIVDNVVDMAHFFYVHYGMPTYFKNVFEGHVATQVMRSKPRADAVDVKLGTNYDTESASDASYFGPSYMIDKLWTEGDDSGEPNIMLINCHYPISADSFMLQYGVMVKKPEGVPDAVANGIAAQVAAGVAIGFEQDVEIWKKKSSIDNPLLSEEDGPVYQLRRWYEQFYVDVEDINPEMTNRFEFEIDTDRALKNWQVEVDANLAAGRSAIPSPVS”: the protein production entry was “not failed”. Take “MSAKTNAEVVIDGKVYTLSGYENEEYLQKVAAYINNKIAEFDDMDEYKHLPGNMKSTLIELNIADDYFKAKALVEKLEGDIENKDKEIYDLKHDLISNQVKTENAEASMKELEAQNKELLLNKARLEATLEESLLDGKKPVKKSAHASKGANDSSDK”: the protein production result is “failed”. In the case of “MSALVSMNGNNGSTATSARIAAKKPISILVLGVDQGLEGRNDKGNSDTIILVTVNPTTKKATMTSIPRDTLTEILGETSNTSYYMFKVNSAYQFGGSSGSIKTVSAMLNVPINYYVEVNMKALESLVNALGGVDVNVPFSFSYDWCDFKKGKQHLDGRYAIAYARMRYDDPRGDYGRQLRQRQIIQAVVKKGLSVNGLANYQKLLKVFAKYVKTNLTFGDMTSLAINYRSAASNISSGYIQGHDATISGTSLQIASTEELQKWSNKLRKSLGLSPQTLTNQETRQNSLNETYNGVDFSSNETITNYTIYEANSITPRSSDSWLEHHHHHH”, the protein production result is given as “not failed”.
